Reference: US7846710B2, “Cell comprising an intein for the production of a cyclic peptide” (The Penn State Research Foundation, priority 1998, dated 2010)

Biological target: T1, recombinant Streptomyces antibioticus tyrosinase (Streptomyces antibioticus, UniProt P07524)
T1 construct: expressed in transfected cells; host or cells: E. coli XL1-Blue co-transformed with pDIM-NY (pDIMN-Y) and pARCP-p or pARCP2-6H
T1 sequence (P07524 whole entry, looked up): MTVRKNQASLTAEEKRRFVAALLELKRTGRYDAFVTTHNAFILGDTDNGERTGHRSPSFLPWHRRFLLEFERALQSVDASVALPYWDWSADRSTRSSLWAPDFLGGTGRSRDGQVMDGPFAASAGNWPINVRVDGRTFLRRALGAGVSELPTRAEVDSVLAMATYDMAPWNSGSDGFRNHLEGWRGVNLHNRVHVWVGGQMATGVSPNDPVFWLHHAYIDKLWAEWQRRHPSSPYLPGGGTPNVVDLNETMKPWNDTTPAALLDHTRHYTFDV
Assay: In vivo assay on FeCuY plates to detect tyrosinase inhibition (pigment formation) by co-expressed cyclic peptide
Assay type: cell-based, Escherichia coli XL1-Blue
Conditions: co-expression in tyrosinase expressing XL1-Blue cells on FeCuY plates, L-(+)arabinose (0.5%) induction
Description: FIG. 7 is a photograph of FeCuY plates used in an in vivo assay to detect tyrosinase inhibition by pseudostellarin F.
The tyrosinase gene (including ORF 438) from Streptomyces antibioticus (Berman et al, Gene 37:101, 1985) was amplified with Vent-polymerase from pIJ702 (ATCC no. 35287) with primers introducing 5′
Ndel and 3′ EcoRI restriction sites. The PCR product was digested with Ndel and EcoRI and ligated into similarly digested pDIMN2 (Ostermeier et al, supra) to generate pDIMN-Y. Transformed ligation mixtures were grown at ambient temperature for 5 days, and colonies that expressed tyrosinase were identified by pigment formation on FeCuY plates [LB agar plates containing ampicillin (200 ug/ml), FeCI3.6H2O (0.2 mM), CuS04.5H2O (0.2 mM), L-tyrosine (0.3 mg/ml, Y) and isopropyl-B-D-galactoside (1 mM)] (Della-Cioppa, G. et al., Biotechnology 8:634, 1990).
Pseudostellarin F production was readily detected in vivo through inhibition of recombinant Streptomyces antibioticus tyrosinase (FIG. 7). In the experiment shown in FIG. 7, XLI-Blue cells were co-transformed with pDIM-NY and either pARCP2-6H (a & b) or pARCP-p (c & d). The cells were plated on FeCuY plates with chloramphenicol (50 ug/ml), either without (a & c) or with (b & d) L-(+)arabinose (0.5%).

Row | Substance | tyrosinase inhibition (pigment formation)
1 | cyclo-[CHMHHHHHHGAGAA] (backbone cyclized) [cyclic peptide from pARCP2-6H, unrelated cyclic peptide encoded by plasmid pARCP2-6H, used as negative control] | failed to inhibit tyrosinase
2 | cyclo-[Ser-Gly-Gly-Tyr-Leu-Pro-Pro-Leu] (SGGYLPPL; backbone cyclized; printed: Ser-Gly-Gly-Tyr-Leu-Pro-Pro-Leu) [pseudostellarin F, backbone cyclic peptide produced in E. coli from pARCP-p by intein-mediated cyclization] | dramatically reduced pigment formation
